From patent EP1378570B1

Molecular target: murine Flk-1 receptor tyrosine kinase (fetal liver kinase 1), full-length, transiently expressed in COS-1 cells from pCMV-Flk-1 (mouse) (UniProt P35918)
Assay: competition of unlabeled VEGF (0 to 7 x 10^-9) with 10 pM 125I-VEGF on COS-1 cells expressing Flk-1; analysis by Munson and Rodbard

Chain of UniProt P35918 (P35918 other isoform, or with tags, fused parts or gaps limits assumed): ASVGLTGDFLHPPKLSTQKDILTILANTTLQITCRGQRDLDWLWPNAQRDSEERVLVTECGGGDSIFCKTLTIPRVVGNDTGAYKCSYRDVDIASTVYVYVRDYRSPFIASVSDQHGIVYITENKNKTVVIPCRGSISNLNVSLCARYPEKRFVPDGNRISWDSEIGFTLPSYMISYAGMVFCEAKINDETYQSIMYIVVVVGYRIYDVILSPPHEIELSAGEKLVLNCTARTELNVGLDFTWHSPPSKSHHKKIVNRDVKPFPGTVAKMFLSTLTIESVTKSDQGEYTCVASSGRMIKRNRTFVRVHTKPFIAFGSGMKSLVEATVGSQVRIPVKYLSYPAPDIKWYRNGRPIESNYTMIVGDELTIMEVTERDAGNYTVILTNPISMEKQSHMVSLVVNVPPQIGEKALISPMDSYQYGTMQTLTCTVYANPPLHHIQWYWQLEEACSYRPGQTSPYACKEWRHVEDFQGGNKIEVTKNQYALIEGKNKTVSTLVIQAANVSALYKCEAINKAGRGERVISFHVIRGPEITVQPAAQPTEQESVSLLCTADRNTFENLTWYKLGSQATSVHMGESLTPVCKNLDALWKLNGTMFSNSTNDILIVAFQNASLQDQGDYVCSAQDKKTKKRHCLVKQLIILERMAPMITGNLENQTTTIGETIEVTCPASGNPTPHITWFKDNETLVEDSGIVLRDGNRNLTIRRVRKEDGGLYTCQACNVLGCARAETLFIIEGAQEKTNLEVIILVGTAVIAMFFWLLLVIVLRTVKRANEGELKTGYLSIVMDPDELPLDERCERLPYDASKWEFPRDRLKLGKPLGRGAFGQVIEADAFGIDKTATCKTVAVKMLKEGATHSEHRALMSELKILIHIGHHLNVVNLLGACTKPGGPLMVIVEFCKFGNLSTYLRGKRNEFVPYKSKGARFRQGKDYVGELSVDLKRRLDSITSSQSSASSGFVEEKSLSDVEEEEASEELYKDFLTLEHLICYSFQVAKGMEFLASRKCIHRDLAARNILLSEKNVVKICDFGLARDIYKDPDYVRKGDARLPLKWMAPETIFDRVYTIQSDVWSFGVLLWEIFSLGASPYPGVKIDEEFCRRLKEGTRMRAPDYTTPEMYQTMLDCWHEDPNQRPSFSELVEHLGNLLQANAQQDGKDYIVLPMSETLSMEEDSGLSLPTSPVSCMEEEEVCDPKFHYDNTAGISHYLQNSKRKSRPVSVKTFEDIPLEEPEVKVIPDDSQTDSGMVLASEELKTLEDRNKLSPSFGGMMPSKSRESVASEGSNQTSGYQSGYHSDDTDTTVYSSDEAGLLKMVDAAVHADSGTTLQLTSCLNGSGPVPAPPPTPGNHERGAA

How did the Kd turn out when “unlabeled VEGF (164 amino acid form), partially purified from conditioned media of COS-1 cells transiently expressing VEGF (from UniProt Q00731 1-392) (ligand)” was run?
The Kd was 0.1 nM.
